According to patent publication US20210301025A1 (published 2021):
Residue numbers refer to the chain shown, from its start. Names and notes keep the numbering of the source.

B1: P54AR4-83v2 A3C, NEM conjugate (designed binder, not shown: small tags and cut ends)
chain: LPCPKNLVVSEVTEDSARLSWDDPWAFYESFLIQYQESEKVGEAIVLTVPGSERSYDLTGLKPGTEYTVSIYGVHNVYKDTNMRGLPLSAIFTT
modifications: N-ethyl maleimide (NEM) on Cys 3
B2: P54AR4-83v2 I91C, NEM conjugate (designed binder, not shown: small tags and cut ends)
chain: B1 chain with C3A, I91C
modifications: N-ethyl maleimide (NEM) on Cys 91
B3: P54AR4-83v2 D80C, NEM conjugate (designed binder, not shown: small tags and cut ends)
chain: B1 chain with C3A, D80C
modifications: N-ethyl maleimide (NEM) on Cys 80
B4: P54AR4-83v2 I45C, NEM conjugate (designed binder, not shown: small tags and cut ends)
chain: B1 chain with C3A, I45C
modifications: N-ethyl maleimide (NEM) on Cys 45
B5: P54AR4-83v2 K62C, NEM conjugate (designed binder, not shown: small tags and cut ends)
chain: B1 chain with C3A, K62C
modifications: N-ethyl maleimide (NEM) on Cys 62
B6: P54AR4-83v2 F27C, NEM conjugate (designed binder, not shown: small tags and cut ends)
chain: B1 chain with C3A, F27C
modifications: N-ethyl maleimide (NEM) on Cys 27
B7: P54AR4-83v2 D15C, NEM conjugate (designed binder, not shown: small tags and cut ends)
chain: B1 chain with C3A, D15C
modifications: N-ethyl maleimide (NEM) on Cys 15
B8: P54AR4-83v2 D22C, NEM conjugate (designed binder, not shown: small tags and cut ends)
chain: B1 chain with C3A, D22C
modifications: N-ethyl maleimide (NEM) on Cys 22
B9: P54AR4-83v2 G51C, NEM conjugate (designed binder, not shown: small tags and cut ends)
chain: B1 chain with C3A, G51C
modifications: N-ethyl maleimide (NEM) on Cys 51
B10: P54AR4-83v2 E11C, NEM conjugate (designed binder, not shown: small tags and cut ends)
chain: B1 chain with C3A, E11C
modifications: N-ethyl maleimide (NEM) on Cys 11
B11: P54AR4-83v2 H75C, NEM conjugate (designed binder, not shown: small tags and cut ends)
chain: B1 chain with C3A, H75C
modifications: N-ethyl maleimide (NEM) on Cys 75
B12: P54AR4-83v2 A26C, NEM conjugate (designed binder, not shown: small tags and cut ends)
chain: B1 chain with C3A, A26C
modifications: N-ethyl maleimide (NEM) on Cys 26
B13: P54AR4-83v2 K40C, NEM conjugate (designed binder, not shown: small tags and cut ends)
chain: B1 chain with C3A, K40C
modifications: N-ethyl maleimide (NEM) on Cys 40
B14: P54AR4-83v2 E29C, NEM conjugate (designed binder, not shown: small tags and cut ends)
chain: B1 chain with C3A, E29C
modifications: N-ethyl maleimide (NEM) on Cys 29
B15: P54AR4-83v2 G60C, NEM conjugate (designed binder, not shown: small tags and cut ends)
chain: B1 chain with C3A, G60C
modifications: N-ethyl maleimide (NEM) on Cys 60
B16: P54AR4-83v2 E43C, NEM conjugate (designed binder, not shown: small tags and cut ends)
chain: B1 chain with C3A, E43C
modifications: N-ethyl maleimide (NEM) on Cys 43
B17: P54AR4-83v2 G42C, NEM conjugate (designed binder, not shown: small tags and cut ends)
chain: B1 chain with C3A, G42C
modifications: N-ethyl maleimide (NEM) on Cys 42
B18: P54AR4-83v2 K5C, NEM conjugate (designed binder, not shown: small tags and cut ends)
chain: B1 chain with C3A, K5C
modifications: N-ethyl maleimide (NEM) on Cys 5
notes: also called KSC
B19: P54AR4-83v2 F31C, NEM conjugate (designed binder, not shown: small tags and cut ends)
chain: B1 chain with C3A, F31C
modifications: N-ethyl maleimide (NEM) on Cys 31
B20: P54AR4-83v2 E14C, NEM conjugate (designed binder, not shown: small tags and cut ends)
chain: B1 chain with C3A, E14C
modifications: N-ethyl maleimide (NEM) on Cys 14
B21: P54AR4-83v2 K79C, NEM conjugate (designed binder, not shown: small tags and cut ends)
chain: B1 chain with C3A, K79C
modifications: N-ethyl maleimide (NEM) on Cys 79
B22: P54AR4-83v2 G73C, NEM conjugate (designed binder, not shown: small tags and cut ends)
chain: B1 chain with C3A, G73C
modifications: N-ethyl maleimide (NEM) on Cys 73
B23: P54AR4-83v2 E39C, NEM conjugate (designed binder, not shown: small tags and cut ends)
chain: B1 chain with C3A, E39C
modifications: N-ethyl maleimide (NEM) on Cys 39
B24: P54AR4-83v2 G64C, NEM conjugate (designed binder, not shown: small tags and cut ends)
chain: B1 chain with C3A, G64C
modifications: N-ethyl maleimide (NEM) on Cys 64
B25: P54AR4-83v2 A90C, NEM conjugate (designed binder, not shown: small tags and cut ends)
chain: B1 chain with C3A, A90C
modifications: N-ethyl maleimide (NEM) on Cys 90
B26: P54AR4-83v2 L7C, NEM conjugate (designed binder, not shown: small tags and cut ends)
chain: B1 chain with C3A, L7C
modifications: N-ethyl maleimide (NEM) on Cys 7
B27: P54AR4-83v2 G85C, NEM conjugate (designed binder, not shown: small tags and cut ends)
chain: B1 chain with C3A, G85C
modifications: N-ethyl maleimide (NEM) on Cys 85
B28: P54AR4-83v2 E53C, NEM conjugate (designed binder, not shown: small tags and cut ends)
chain: B1 chain with C3A, E53C
modifications: N-ethyl maleimide (NEM) on Cys 53
B29: P54AR4-83v2 D23C, NEM conjugate (designed binder, not shown: small tags and cut ends)
chain: B1 chain with C3A, D23C
modifications: N-ethyl maleimide (NEM) on Cys 23

target: T1, EGFR (form used in the assay not stated) (human, UniProt P00533 25-645, limits assumed); experiment: ELISA, NEM conjugate, 100 nM

Binder | binding relative to P54AR4-83v2 parent [ratio]
B1 | 0.88
B2 | 1.01
B3 | 0.97
B4 | 1.04
B5 | 0.73
B6 | 0.07
B7 | 1.09
B8 | 1.02
B9 | 1.03
B10 | 1.08
B11 | 0.19
B12 | 1.06
B13 | 0.95
B14 | 1.07
B15 | 1.02
B16 | 1.04
B17 | 0.99
B18 | 1.06
B19 | 0.34
B20 | 1.27
B21 | 0.99
B22 | 0.02
B23 | 1
B24 | 1.42
B25 | 1.05
B26 | 1
B27 | 0.02
B28 | 1.02
B29 | 0.2

target: T1, EGFR (form used in the assay not stated); experiment: ELISA, NEM conjugate, 10 nM

Binder | binding relative to P54AR4-83v2 parent [ratio]
B1 | 0.34
B2 | 0.9
B3 | 0.7
B4 | 0.91
B5 | 0.64
B6 | 0
B7 | 0.98
B8 | 0.84
B9 | 0.88
B10 | 0.9
B11 | 0.07
B12 | 0.95
B13 | 0.88
B14 | 0.89
B15 | 0.86
B16 | 0.68
B17 | 0.84
B18 | 0.61
B19 | 0.04
B20 | 1.11
B21 | 0.9
B22 | 0
B23 | 0.9
B24 | 1.28
B25 | 0.94
B26 | 0.35
B27 | 0.19
B28 | 0.91
B29 | 0.02

target: T1, EGFR (form used in the assay not stated); experiment: ELISA, NEM conjugate, 500 nM

Binder | binding relative to P54AR4-83v2 parent [ratio]
B1 | 0.82
B2 | 1
B3 | 0.91
B4 | 0.93
B5 | 0.61
B6 | 0.23
B7 | 0.97
B8 | 0.9
B9 | 0.92
B10 | 0.95
B11 | 0.25
B12 | 0.95
B13 | 0.86
B14 | 0.93
B15 | 0.93
B16 | 0.92
B17 | 0.9
B18 | 0.92
B19 | 0.62
B20 | 1.15
B21 | 0.93
B22 | 0.21
B23 | 0.9
B24 | 1.36
B25 | 1.01
B26 | 0.9
B27 | 0.29
B28 | 0.91
B29 | 0.4
